B1: BDNF: Human recombinant BDNF (brain derived neurotrophic factor), used as a positive control (protein, UniProt P23560 19-247, looked up)
Neurotrophic factor BDNF …: APMKEANIRGQGGLAYPGVRTHGTLESVNGPKAGSRGLTSLADTFEHVIEELLDEDQKVRPNEENNKDADLYTSRVMLSSQVPLEPPLLFLLEEYKNYLDAANMSMRVRRHSDPARRGELSVCDSISEWVTAADKKTAVDMSGGTVTVLEKVPVSKGQLKQYFYETKCNPMGYTKEGCRGIDKRHWNSQCRTTQSYVRALTMDSKKRIGWRFIRIDTSCVCTLTIKRGR
B2: VEGF-A165: VEGF isoform that can bind to flk-1, flt-1 and neuropilin-1 (protein)
chain: APMAEGGGQNHHEVVKFMDVYQRSYCHPIETLVDIFQEYPDEIEYIFKPSCVPLMRCGGCCNDEGLECVPTEESNITMQIMRIKPHQGQHIGEMSFLQHNKCECRPKKDRARQENPCGPCSERRKHLFVQDPQTCKCSCKNTDSRCKARQLELNERTCRCDKPRR
B3: VEGF-A121: VEGF isoform that can only bind to the Flk-1 receptor (protein)
chain: APMAEGGGQNHHEVVKFMDVYQRSYCHPIETLVDIFQEYPDEIEYIFKPSCVPLMRCGGCCNDEGLECVPTEESNITMQIMRIKPHQGQHIGEMSFLQHNKCECRPKKDRARQEKCDKPRR

Columns and labels:
6-OHDA Lesioned Rats = experiment: i.c.v. infusion in 6-OHDA lesioned rats, BrdU / NeuN labelling; format: in vivo, rat; conditions: for numbers of BrdU labelled cells in the denervated striatum: compared to PBS infusion
Experimental: Animal handling and surgical procedures were carried out according to the ethical and regulatory permits set forth by Jordbruksverket and Lund University. Adult female Sprague-Dawley rats (B&K Universal AB) rats weighing 220-250 g, were housed in pairs with a 12 h light-dark cycle with free access to food and water. To lesion the substantia nigra, rats were fixed into a stereotaxic frame and 6-OHDA ([…] in 0.02% ascorbate saline, Sigma) was injected at a rate of 1 μl/min in 2 deposits of 2 and 2.5 μl into the right ascending mesostriatal forebrain bundle at the following coordinates: 4.4 mm caudal to bregma, 1.2 mm lateral to midline, 7.8 mm below dura; 4.0 mm caudal, 0.8 mm lateral, 8.0 mm below dura, respectively (Paxinos and Watson, 1998). Three weeks after 6-OHDA injections, the completeness of the lesion was assessed with the amphetamine-induced rotation test. D-methylamphetamine (2.5 mg, i.p.) was injected 5 min prior to placing the rat in an automated rotormeter bowl that measured the number of rotations over 90 min.
Before implantation, an Alzet Model 2002 osmotic minipump (200 μl; flow rate: 0.5 μl/h, 12 μl/day) was prefilled with 200 μl of compound solution (see below) and placed in a NaCl (0.9%) solution warmed in water bath (37° C.) 36 hrs before implantation. Rats were anesthetized with halothane in a mixture of nitrous oxide/oxygen (70:30) and maintained with 2-3% halothane. For implantation, rats were placed in a stereotaxic frame and the cannula of the Alzet Brain Infusion kit II was placed into the right lateral ventricle (coordinates: AP=−0.3 mm posterior bregma, L=1.5 mm lateral to satura sagittalis, 4.5 mm the dura; Paxinos and Watson, 1998), and secured to the skull with screws and dental cement. The minipump was then placed subcutaneously in the mid-scapular region. The scalp was treated with lidocaine gel before suturing. Twelve days after insertion, the rats were briefly anaesthetized with halothane in order to remove the pump. Removed pumps had the remaining solution volume and weight recorded.
The effects of infused PDGF-BB and BDNF following 6-OHDA lesions were investigated at 2 different time points: at 12 days or 5 weeks after minipump insertion. Rats receiving human PDGF-BB (order # 220-BB-050; 50 μg, R&D Systems) each had 36 ng/d of PDGF dissolved in 0.1 M PBS (3 μg/ml). Rats receiving human recombinant BDNF (order # 248-BD-025; 25 μg, R&D Systems) each had 12 ng/d of BDNF dissolved in 0.1 M PBS (1 μg/ml). BrdU was co-administered with the compound solution in the minipumps by dissolving it into the 0.1 M PBS medium. Control rats received only BrdU/PBS infusions.
Brain tissue was obtained by anesthetizing the rat and transcardially perfusing with 0.9% saline followed by 4% paraformaldehyde (PFA). Brains were stored PFA for 2 hours, then transferred to 20% sucrose PBS and sectioned coronally on a sledge microtome at 30 μm thickness. Free-floating sections were stored in Walter's antifreeze solution at 4° C. until staining.
Following blocking, incubation of monoclonal rat anti-BrdU antibody (Harlan Sera Lab, UK) in 2% blocking solution occurred at a dilution of 1:100 at 4° C. for 36 hrs. The sections were then incubated with biotin-horse-[…] antibody (1:200) (Vector, CA) in 2% blocking solution for 2 hr and visualized with DAB-NiCl Vectastain Elite kit. The procedure for doubling labeling of BrdU with NeuN or TH was similar, except that a monoclonal rat anti-BrdU antibody (1:100; Sigma, Sweden) was incubated either with a monoclonal mouse anti-NeuN antibody (1:100; Chemicon, USA) or with a monoclonal anti-TH antibody (1:1000; Pelfreeze) in the appropriate 2% blocking solution in the dark for 36 to 48 hrs. For immunofluorescent visualization, sections were incubation in secondary antibodies: Cy3-conjugated donkey anti-rat (1:200; Jackson ImmunoResearch, PA) for BrdU; a biotinylated horse anti-mouse antibody (1:200; BA2001, Vector, CA) for NeuN; and a FITC-conjugated goat anti-rat (1:200;) for TH. […]

Healthy Rats = experiment: ICV infusion in healthy rats, BrdU / NeuN labelling; format: in vivo, rat
Experimental: Male rats (12 hours light/dark regime; feeding and drinking ad libitum; 5 animals in standard cage) were infused (Alzet minipumps) in the left lateral ventricle with human recombinant PDGF-BB for 7 days at a daily dose of 36 ng/day (8 animals/group). Human recombinant BDNF (brain derived neurotrophic factor) was used as a positive control (Pencea V et al., J. Neurosci Sep. 1 (2001), 21(17):6706-17). Bromodeoxyuridine (BrdU) was also included in the infusion vehicle (artificial cerebrospinal fluid) to enable measurement of proliferation by quantitation of BrdU incorporation in the DNA. Animals were sacrificed at 7 (proliferation) or 28 days (neurogenesis) after start of treatment and brains were dissected and prepared for sectioning and immunohistochemistry (Pencea V et al., J. Neurosci Sep. 1 (2001), 21(17):6706-17).
Proliferation was measured by BrdU incorporation and diaminobenzidine (DAB) staining of HRP conjugated secondary antibodies (FIG. 7). Cells were counted in a phase contrast microscope. Neural phenotype was assessed by staining for neuronal marker NeuN by immunocytochemistry using a fluorescence readout. The secondary antibodies were labeled with FITC or Alexa Fluor568. In double staining analyses designed to measure neurogenesis, BrdU and NeuN were quantitated by fluorescence (above) and counting of cells was done in a confocal microscope. For further experimental details, see Pencea V et al., J. Neurosci Sep. 1 (2001), 21(17):6706-17. A number of brain regions were analysed.

[1] = tested on: rat neural stem cells from the adult lateral ventricle wall; experiment: Expansion of rat neural stem cell cultures, total cell counts at 7 days; format: cell-based; conditions: different concentrations, 7 days; FIG. 24, FIG. 25
Experimental: Neural stem cells were prepared according to the attached protocol. Cells were grown in serum-free medium, subcloned and used between passage 6 and 10. If not otherwise mentioned the experiments consisted of triplets for analysis and were independently repeated at least 3 times.
Basal Medium: Neurobasal medium (NB, Gibco BRL) & B27 supplement (Gibco BRL).
Growth Medium: NB, B27 supplement+20 ng/ml of FGF-2 (R&D Systems)+20 ng/ml EGF (R&D Systems)+2 μg/ml heparin (Sigma, Germany).
Cells were plated in Growth medium at 10.000 cells/ml and after 2 days switched to the experimental condition. Cells were kept under the experimental condition for 7 days.
Adult female Fischer-344 rats (3-4 months; Charles River, Germany) were killed via cervical dislocation, the brains of each rat were removed and stored at 4° C. in DPBS (PAN, Germany) with 4.5 g/L glucose (Merck, Germany) (DPBS/glu). Overlying meninges and blood vessels were removed. Ependymal zone including subependymal/subventricular zone form the lateral wall of the lateral ventricle were aseptically removed. […] Live cells were counted by trypan blue exclusion assay in a hemocytometer. […]
The culture medium containing floating neurospheres was collected in a 15 ml centrifuge tube and centrifuged at 800 rpm. […] An aliquot was counted by trypan blue exclusion assay in a hemocytometer to determine the amount of live and dead cells. […]

| Molecule | absolute number of BrdU/NeuN double labelled cells in the striatum (6-OHDA Lesioned Rats; 5 weeks, FIG. 15) | numbers of BrdU labelled cells in the denervated striatum (6-OHDA Lesioned Rats; 12 days after infusion, PDGF 36 ng/d, BDNF 12 ng/d) | numbers of BrdU labelled cells in the lesioned substantia nigra (6-OHDA Lesioned Rats; 12 days after infusion, compared to PBS treatment) | BrdU cells in the striatum co-labelled with NeuN (proportion of newly generated neurons) (6-OHDA Lesioned Rats; Week 5, no statistically significant differences) [%] | numbers of BrdU labelled cells in the denervated striatum (6-OHDA Lesioned Rats; at 5 weeks) | Cell count (BrdU, proliferation) along the lateral ventricle wall (Healthy Rats; 7-day group, ICV infusion 7 days, 36 ng/day, mean of two sections, mean +/- sem) | number of proliferating cells in the subventricular zone (Healthy Rats; 28-day group) | neurogenesis in the striatum (Healthy Rats; 28-day group, in comparison to vehicle treated animals) | BrdU positive cells in the dentate gyrus, the CA1 and the alveus (Healthy Rats; 28-day group, in comparison to vehicle-treated animals) | BrdU positive cells in the striatum (Healthy Rats; 28-day group, cells counted in 300 × 300 μm squares) | stimulation of proliferation of neural stem cell cultures [1] |
| --- | --- | --- | --- | --- | --- | --- | --- | --- | --- | --- | --- |
| B1 | significantly more neurons | significantly elevated | significantly elevated | 16.6 | significant increases | 177 +/−15 | slight effect | significantly increase neurogenesis | no significant effect | 39.8 ± 7.3 (p < 0.01 to vehicle, ANOVA) |  |
| B2 |  |  |  |  |  |  |  |  |  |  | significant stimulation |
| B3 |  |  |  |  |  |  |  |  |  |  | significant stimulation |

From US7981863B2, “Treatment of Parkinson's disease with PDGF” (Neuronova AB, priority 2001, dated 2011)
